Biological target: T1, λCI-CbtA fusion protein (wild-type CbtA toxin of E. coli) (E. coli), P64524
T1 chain: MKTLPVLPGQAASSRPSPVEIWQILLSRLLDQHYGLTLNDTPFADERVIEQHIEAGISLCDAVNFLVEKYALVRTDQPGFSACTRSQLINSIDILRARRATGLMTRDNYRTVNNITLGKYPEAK
Assay: two-hybrid
Conditions: remark: other sources report otherwise

B1: α-MreB fusion protein (wild-type E. coli MreB), P0A9X4 1-347 (natural protein)
chain: MLKKFRGMFSNDLSIDLGTANTLIYVKGQGIVLNEPSVVAIRQDRAGSPKSVAAVGHDAKQMLGRTPGNIAAIRPMKDGVIADFFVTEKMLQHFIKQVHSNSFMRPSPRVLVCVPVGATQVERRAIRESAQGAGAREVFLIEEPMAAAIGAGLPVSEATGSMVVDIGGGTTEVAVISLNGVVYSSSVRIGGDRFDEAIINYVRRNYGSLIGEATAERIKHEIGSAYPGDEVREIEVRGRNLAEGVPRGFTLNSNEILEALQEPLTGIVSAVMVALEQCPPELASDISERGMVLTGGGALLRNLDRLLMEETGIPVVVAEDPLTCVARGGGKALEMIDMHGGDLFSEE
Question: Which fold increase in lacZ expression does the source give for B1 here?
Answer: 3 fold

From publication PMC5624674
